# Assay results reported in the DeepSol protein solubility set.
# Experiment: soluble on expression in E. coli; label from the status in PepcDB or PDB records
row,Sequence,soluble on expression in E. coli
1,IFFMEAMSPQQETLGGQPGRSSSLTGVSRLAGGSCTKKKMKTLAERRRSAPSLILDKALQKRPTTRDSPSASVDTCTFLSSLVCSNRTLLIDGRAELKRGLQRQERHLFLFNDLFVVAKIKYNNNFKIKNKIKLTDMWTASCVDEVGEGNTNAMKSFVLGWPTVNFVATFSSPEQKDKWLSLLQRYINLEKEKDYPKSIPLKIFAKDIGNCAYSKTITVMNSDTANEVINMSLPMLGITGSERDYQLWVNSGKEEAPYPLIGHEYPYGIKMSHLRDSALLTPGSKDSTTPFNLQEPFLMEQLPREMQCQFILKPSRLAAAQQLSDSGHKTFKRRRSIINWAFWRGSSTHLDNLPSSPTSPMPGQLFGISLPNICENDNLPKPVLDMLFFLNQKGPLTKGIFRQSANVKSCRELKEKLNSGVEVHLDCESIFVIASVLKDFLRNIPGSIFSSDLYDHWVSVMDQGNDEEKINTVQRLLDQLPRANVVLLRYLFGVLHNIEQHSSSNQMTAFNLAVCVAPSILWPPASSSPELENEFTKKVSLLIQFLIENCLRIFGEEITSLFREVSVRCDTRENASDISCFQLNDSSYDSLENELNEDVDAPCSDLVKKLGQGSRSMDSVLTLSDYDLDQPEVEGLLTLSDFDLAHSKDEDVQMKRPLESKPVNILVYTKIPLRDHARAPSAMCTPSYLSTAAANAAKSLRRHRRCSEPSIDYLDSKLSYLREFYQKKLRKSSCDAILSQKDEDYLKQNQPLQEEGKTCFKQSLVTGTDVSKKNATTQNTKKKSLSGSEGNHVKLFPKSKPVAISVASYSPMSSQDHSKNQPFDVNTSGYSPPHTADALKGPRTHRRCSEPNIEDQNRKLTYLRGIYSKKQHKTSCEAGLLHGEEDYLKRHKSLQMEGQKLINQSLVMGIEVGKSSATNQNTEKVLPPRLNLCPRTSYSSLSSPGTSPSGSSVSSQDSAFSQISEHSVFTPTETSSPIDCTFQAQRKREDLSPDFSNASHVSGMPGPSSGQACSRPAYTKKDTMEWHSQMHSVTLHPSTWLRNGVASLKNWSLKKKAKAARPEEEKIASPKGPLEPPPHASGVPEANSLQEEQKDLPLRAAEGLSPVQSAQRCSSSPFQDSERHCSSPFSLVESRLKLCMKSHEEIEPGSQSSSGSLPWERASASSWTLEDATSPDSGPTVVCDIEDRYLTKDI,soluble
2,MGSSHHHHHHSSGLVPRGSHMAKVNAFSKKIGWIEFITGPMFAGKTAELIRRLHRLEYADVKYLVFKPKIDTRSIRNIQSRTGTSLPSVEVESAPEILNYIMSNSFNDETKVIGIDEVQFFDDRICEVANILAENGFVVIISGLDKNFKGEPFGPIAKLFTYADKITKLTAICNECGAEATHSLRKIDGKHADYNDDIVKIGCQEFYSAVCRHHHKVPNRPYLNSNSEEFIKFFKNKKRNKNI,soluble
3,SLRSLLTRRTIAIEGCCHGELDAIYSSLARLEEMHKMKVDLLICCGDFQFLACPPKYRDLRDFPAYFRGEKEAPCLTVFVGGNHEAPTVLRELYYGGWVAPKIFYLGHAGVVNVGGVRIAGLSGIFKSQDYRKGYFERPPYTEDTMRSAYHVREFEIAKLNRELTGRVDIVVTHDWPEGIYDFGDKTELIRQKPFLEKDIQAHELGNPHSMELLKKLKPAFWFAAHLHTRFAAVYVHPGPEGKATRFLALDKVLPRREFLQILEVEPLLPAGYVQQLSPGISRRSPTLCYDEEWLAILRANQQVLPVSRFPQKSCLVTKATADDLATVKKNLASLGLR,soluble
4,GPGSMLTTTDVGGVVRRINVDYKKLKAAYDQNNDSLCLNLVNGLKKQLILLPTFLNPAAASATWLEEVTLTREVLEYAVLVSARLEDLASFELYFNQLSVYYTDIDPTKLEESPLYSLILGLNLVRLLVDDRIAQFHTELEKVPNHIYAPNAYVRFAVLLERYLMEGSYSKLLNSRDQAPSKEYIPIVGMLEKTVRQGVAECIPHSYAKLSFERAQKILMVDSTDAVREIGKQYEWELGKDGASFVFTRREDIAKREVPFQEMLGHHLNFAADLQRIV,soluble
5,RQEQTETLAEERAETVANLEELNALILQRMRTGILVVDSRQAILLANQAALGLLRQDDVQGASLGRHSPMLMHCMKQWRLNPSLRPPTLKVVPDGPTVQPSFISLNREDDQHVLIFLEDISQIAQQAQQMKLAGLGRLTAGIAHEIRNPLGAISHAAQLLQESEELDAPDRRLTQIIQDQSKRMNLVIENVLQLSRRRQAEPQQLDLKEWLQRFVDEYPGRLRNDSQLHLQLGAGDIQTRMDPHQLNQVLSNLVQNGLRYSAQAHGRGQVWLSLARDPESDLPVLEVIDDGPGVPADKLNNLFEPFFTTESKGTGLGLYLSRELCESNQARIDYRNREEGGGCFRITFA,not soluble
6,MVRESIPKEGENIKIQSYKHDGKIHRVWSETTILKGTDHVVIGGNDHTLVTESDGRTWITREPAIVYFHSEYWFNVICMFREDGIYYYCNLSSPFVCDEEALKYIDYDLDIKVYPNGKYHLLDEDEYEQHMNQMNYPHDIDIILRRNVDILQQWIEQKKGPFAPDFIKVWKERYKKIRQY,soluble
7,MSTKNRTRRTTTRNIRFPNQMIEQINIALDQKGSGNFSAWVIEACRRRLTSEKRAYTSIKSDEE,soluble
8,MNHAQLRRVTAESFAHYRHGLAQLLFETVHGGASVGFMADLDMQQAYAWCDGLKADIAAGSLLLWVVAEDDNVLASAQLSLCQKPNGLNRAEVQKLMVLPSARGRGLGRQLMDEVEQVAVKHKRGLLHLDTEAGSVAEAFYSALAYTRVGELPGYCATPDGRLHPTAIYFKTLGQPT,soluble
9,MPSGAEFTRDERQLNQHENPNDAMSDDNSHSSDTVNSKKGFFSLLLSQLFHGEPKNRDELLALIRDSGQNDLIDEDTRDMLEGVMDIADQRVRDIMIPRSQMITLKRNQTLDECLDVIIESAHSRFPVISEDKDHIEGILMAKDLLPFMRSDAEAFSMEKVLRPAVVVPESKRVDRMLKEFRSQRYHMAIVIDEFGGVSGLVTIEDILELIVGEIEDEYDEEEDIDFRQLSRHTWTVRALASIEDFNDAFDTHFSDEEVDTIGGLVMQAFGHLPARGESIDIDGYQFKVAMADSRRIIQVHVKLPDDAPQPKLEE,not soluble
10,QLTRERLTATSRYKLSSSDTFRVIGNPEPREGKLRMQVQLTGGSSPSYILYIRHEGEYEPVARGDMLKLRKFYARSVEEWEQKAPAMGRYMAGKGLSGSLHAKTGDVEILSTAKGPFSLRQKALDLSDRLAATLYELSPSLLSDSRRAMLEAMCLGREGEAPDVRRKFVAAGVAH,not soluble
11,HQITRTVPAKRGTIYDRNGVPIAEDATSYNVYAVIDKKYKSATGKILYVEDAQFNKVAEVFHKYLDMEESYVREQLSQPNLKQVSFGSKGNGITYANMMAIKKELETAEVKGIDFTTSPNRSYPNGQFASSFIGLAQLHENEDGSKSLLGTSGMESSLNSILAGTDGIITYEKDRVGNIVPGTELVSQQTVDGKDVYTTLSSPLQSFMETQMDAFLEKVKGKYMTATLVSAKTGEILATTQRPTFNADTKEGITEDFVWRDILYQSNYEPGSAMKVMTLASSIDNNTFPSGEYFNSSELKIADATTRDWDVNEGLTTGGMMTFLQGFAHSSNVGMSLLEQKMGDATWLDYLKRFKFGVPTRFGLTDEYAGQLPADNIVSIAQSSFGQGISVTQTQMLRAFTAIANDGVMLEPKFISAIYDTNNQSVRKSQKEIVGNPVSKEAASTTRNHMILVGTDPLYGTMYNHYTGKPIITVPGQNVAVKSGTAQIADEKNGGYLVGSTNYIFSAVTMNPAENPDFILYVTVQQPEHYSGIQLGEFATPILERASAMKESLNLQSPAKNLDKVTTESSYAMPSIKDISPGELAEALRRNIVQPIVVGTGTKIKETSVEEGTNLAPNQQVLLLSDKVEEIPDMYGWKKETAETFAKWLDIELEFEGSGSVVQKQDVRTNTAIKNIKKIKLTLGD,soluble
12,MSLFYEEVFSDLKEEEKALLEFISSGNLEIDRKLEGGVPVGSLCLLEGGNDSGKSIFLQQIMWGALNQDKRVLALATEKTSKELLNQMESLKHGISDYFIIGRAKIFEINAGYVEENPQLSESLLQVLLECIKRCKEELILIDSLTIFAVNASENAVLNFFTECVKLCDNGKTILISVHGYAFSQSVLYRLRSVCSVCLELRIEQVGDQWIKTMEIQKLRGARKTRGNLLSFDVDSKFGLKIIPVSKVKAEGHHHHHH,soluble
13,MTTIEIDAPAGPIDALLGLPPGQGPWPGVVVVHDAVGYVPDNKLISERIARAGYVVLTPNMYARGGRARCITRVFRELLTKRGRALDDILAARDHLLAMPECSGRVGIVGFCMGGQFALVLSPRGFGATAPFYGTPLPRHLSETLNGACPIVASFGTRDPLGIGAANRLRKVTAAKNIPADIKSYPGAGHSFANKLPGQPLVRIAGFGYNEAATEDAWRRVFEFFGQHLRAGSPGEP,soluble
